Results published in the supplement of paper PMC10567573.
± gives the standard deviation.

Experiment: protein stability index of a GFP-peptide fusion (GPS, HEK-293T) (PSI 1-6); higher = more stable
[1] = treatment: DMSO, c terminus: a fixed tail appended
[2] = treatment: MLN4924 1 uM, 8 h, c terminus: a fixed tail appended
[3] = treatment: DMSO, c terminus: native
[4] = treatment: MLN4924 1 uM, 8 h, c terminus: native
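Note: 24-mer peptide tiles fused after GFP, lentivirally expressed, FACS-sorted into six equal bins by GFP/DsRed ratio, decoded by Illumina sequencing, PSI is the read-weighted mean bin number.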

TVCGDLHGQLDDLIFIFYKNGLPS [PPEF2]
protein stability index [1]: 2.87 ± 2.1
protein stability index [2]: 1.94 ± 0.41

TGEIMHALKMTWHVHCFTCAACKT [PDLIM7]
protein stability index [1]: 2.69 ± 0.33
protein stability index [2]: 2.27 ± 0.25

SRVTASSGITIPKPPKPPDKPLMP [SMARCE1]
protein stability index [1]: 3.78 ± 0.25
protein stability index [2]: 3.94 ± 0.18

TMLKAMFSGRMEVLTDSEGWILID [KCTD10]
protein stability index [1]: 2.51 ± 0.57
protein stability index [2]: 2.75 ± 0.46

DQKERCIIVRTTNKKYYKKFSIPD [DPCD]
protein stability index [1]: 2.95 ± 0.21
protein stability index [2]: 3.06 ± 0.27

AADDFRLKYENELALRQGVEADIN [KRT15]
protein stability index [1]: 4.77 ± 0.29
protein stability index [2]: 4.64 ± 0.23

RFGVRPKVTGYLISYSSMLGAVAG [MFSD9]
protein stability index [1]: 2.58 ± 0.54
protein stability index [2]: 2.29 ± 0.31

NSALKDKEDQFGRTPLMYCVLADR [INVS]
protein stability index [1]: 3.37 ± 0.4
protein stability index [2]: 3.23 ± 0.37

GTEITIAFDFDYGNCKYKVDCACL [KMT2E]
protein stability index [1]: 3.01 ± 0.52
protein stability index [2]: 2.39 ± 0.5

DGSVLLIPRTMADQQARRQERKPK [NFE2L1]
protein stability index [1]: 3.5 ± 0.14
protein stability index [2]: 3.63 ± 0.31

SGATTTAPSLSGKGNPEEEDVDTS [CTNNB1]
protein stability index [1]: 5.61 ± 0.31
protein stability index [2]: 5.62 ± 0.17

LCRKCANDIFQAANPYWTSRGSSV [TRIM63]
protein stability index [1]: 2.32 ± 0.36
protein stability index [2]: 2.58 ± 0.49

KAPDIECVLRCSVLEIEQSMNRVK [FEM1B]
protein stability index [1]: 2.3 ± 0.41
protein stability index [2]: 2.55 ± 0.51

KDVLRYGEEQLKTHKKCKEEVVST [FCHO1]
protein stability index [1]: 4.85 ± 0.13
protein stability index [2]: 4.78 ± 0.19

PGETRRNSYPRADTGLFSRSKSGS [TRIM29]
protein stability index [1]: 4.73 ± 0.18
protein stability index [2]: 5.01 ± 0.47

TPATTTEPPKPTFPAYTQSTASTT [ZNF207]
protein stability index [1]: 4.99 ± 0.12
protein stability index [2]: 5.1 ± 0.15

QPKCDNTARAHPAKARDLYKGRQL [SMOC2]
protein stability index [1]: 4.26 ± 0.17
protein stability index [2]: 4.35 ± 0.19

PDTELKRYFGARAILGEQRPRQRQ [TCF25]
protein stability index [1]: 4.25 ± 0.11
protein stability index [2]: 4.11 ± 0.18

LQEKQKNEKLISLQEQLQRFLKK [TAF7L]
protein stability index [3]: 4.51 ± 0.29
protein stability index [4]: 4.6 ± 0.15

LVMPIEDQLTQIMRTGQNTWESKN [PCMTD1]
protein stability index [1]: 3.13 ± 0.13
protein stability index [2]: 3.2 ± 0.38

LKKFLYNFDNPWNFQNIPKETELP [MIA2]
protein stability index [1]: 3.061 ± 0.006
protein stability index [2]: 2.66 ± 0.41

PGPGGTMKRHSSRDAAGKPQRPRS [FCHO1]
protein stability index [1]: 5.04 ± 0.16
protein stability index [2]: 5.12 ± 0.17

LVFLITAILVKVQLDALPFFVITM [SLC29A1]
protein stability index [1]: 3.06 ± 0.24
protein stability index [2]: 2.88 ± 0.39

TQRPAMVQTEDQYQFSYRAALEYL [PTPRD]
protein stability index [1]: 2.91 ± 0.35
protein stability index [2]: 3.06 ± 0.31

QLTKASLKPRGCSKPPWRPPGGKL [SPACA9]
protein stability index [1]: 2.83 ± 0.29
protein stability index [2]: 2.92 ± 0.079

SQMVSTDNSLSSQNYISQKEDASE [MIA2]
protein stability index [1]: 5.29 ± 0.44
protein stability index [2]: 5.21 ± 0.26

IRLVDDAFGKICHMVSDGSWVVRV [INTS4]
protein stability index [1]: 3.07 ± 0.46
protein stability index [2]: 2.98 ± 0.54

LPVVNAVGEIVGIITRHNLTYEFL [CLCN6]
protein stability index [1]: 3.07 ± 0.43
protein stability index [2]: 2.75 ± 0.66

PWKEETFLVLQSLLERQVEMTPEK [FANCE]
protein stability index [1]: 3 ± 0.22
protein stability index [2]: 3.08 ± 0.27

HSLVRSRHRIPEPEAAVLFRQMAT [TRIB3]
protein stability index [1]: 3.18 ± 0.13
protein stability index [2]: 3.31 ± 0.15

HGEGNHIYAYDAKIEIQTLTGLFK [CASP6]
protein stability index [1]: 2.17 ± 0.22
protein stability index [2]: 2.12 ± 0.33

PLPAAAVVHVSFPEVTSALLESLN [ZBTB22]
protein stability index [1]: 2.41 ± 0.25
protein stability index [2]: 2.27 ± 0.26

TRCKSSEEKKPGELKRLVESRRQQ [TRIM39]
protein stability index [1]: 5 ± 0.32
protein stability index [2]: 5.02 ± 0.27

LGPSRDPDPLNICVFILLLVFIVV [RTP4]
protein stability index [1]: 3.8 ± 0.48
protein stability index [2]: 2.77 ± 0.41

KLPATMPEPVYFHCAAVTPAGCMY [KLHDC10]
protein stability index [1]: 2.27 ± 0.23
protein stability index [2]: 2.08 ± 0.19

LDSCNSLTPKSTPVKTLPFSPSQF [MYBL2]
protein stability index [1]: 3.34 ± 0.2
protein stability index [2]: 3.37 ± 0.42

TLAGVGAQGAALEDPDYYGQEIWS [CPXM2]
protein stability index [2]: 3.96 ± 0.11

QIQRISLNTLTLNVKSEKVYTRHG [FLOT1]
protein stability index [1]: 2.6 ± 0.14
protein stability index [2]: 3.01 ± 0.25

TAQHQRRLAAIAQEKDQEMERLRE [FBF1]
protein stability index [1]: 5.36 ± 0.17
protein stability index [2]: 5.42 ± 0.14

EEVSTLNAQIPELKSDLEKASALN [CD207]
protein stability index [1]: 5.08 ± 0.19
protein stability index [2]: 5.24 ± 0.17

LSPISHGNTIALFFRSLLPNYTME [TCF25]
protein stability index [1]: 3.25 ± 0.47
protein stability index [2]: 2.33 ± 0.7

LIKSGAHFDATNLHKQTASDLLDE [FEM1C]
protein stability index [1]: 4.61 ± 0.36
protein stability index [2]: 4.53 ± 0.51

FLQVLEPGARGLWKPPDIKGKLMV [SPAG8]
protein stability index [1]: 2.38 ± 0.34
protein stability index [2]: 2.26 ± 0.32

NLLPAAGELQESGLALCPEVQDLL [SMG5]
protein stability index [1]: 4.26 ± 0.21
protein stability index [2]: 4.31 ± 0.13

PKAQPQTWKSGKQTMLSHYRPFYV [TRIM29]
protein stability index [1]: 2.57 ± 0.17
protein stability index [2]: 2.06 ± 0.39

DDVLPWRRTAENKLDTKYPYVCHA [DCTD]
protein stability index [1]: 3.331 ± 0.026
protein stability index [2]: 3.31 ± 0.39

LPDPREACGSSSYVASIVDGGESR [RBMY1A1]
protein stability index [1]: 4.74 ± 0.24
protein stability index [2]: 4.64 ± 0.14

AIILSSCLLGLGSLVLILSLSYTV [SLC2A12]
protein stability index [1]: 3.06 ± 0.4
protein stability index [2]: 3.26 ± 0.097

TARAHPAKARDLYKGRQLQGCPGA [SMOC2]
protein stability index [1]: 3.23 ± 0.64
protein stability index [2]: 4.41 ± 0.57

LYWTKWYNNQSLGHGSHSFIYYEN [PKD2L1]
protein stability index [1]: 2.53 ± 0.68
protein stability index [2]: 2.41 ± 0.47

SKRMTFQMPKFDLGPLLSEPLVLY [MYOZ1]
protein stability index [1]: 2.36 ± 0.39
protein stability index [2]: 2.26 ± 0.28

LATASYDTRVYIWDPHNGDILMEF [WSB1]
protein stability index [1]: 2.85 ± 0.12
protein stability index [2]: 2.86 ± 0.26

VLGGFLYAVGGSDGTSPLNTVERY [KLHL20]
protein stability index [1]: 2.18 ± 0.32
protein stability index [2]: 2.47 ± 0.22

NMNDNFLEGEEENELTLNEKNFFP [CHGB]
protein stability index [1]: 4.71 ± 0.16
protein stability index [2]: 4.81 ± 0.14

EERALLLGRMGKHEQALFIYVHIL [VPS39]
protein stability index [1]: 2.96 ± 0.41
protein stability index [2]: 2.68 ± 0.51

VQFHRHHGQEGSILVTKVEEPSKY [GMPPB]
protein stability index [1]: 3.45 ± 0.31
protein stability index [2]: 3.58 ± 0.27

EGPGEQETKLDLISKGEEPRAGKE [SLC29A1]
protein stability index [1]: 5.68 ± 0.21
protein stability index [2]: 5.43 ± 0.21

VVNTDHGSPEQLQIPVTDSGRHIL [SDE2]
protein stability index [1]: 4.18 ± 0.15
protein stability index [2]: 4.29 ± 0.45

FDVHPPLGKMLIGLAGYLSGYDGT [POMT2]
protein stability index [1]: 2.18 ± 0.19
protein stability index [2]: 2.17 ± 0.13

GERVAARGYWGDIATGPFVAFGIE [DNAAF3]
protein stability index [1]: 2.05 ± 0.3
protein stability index [2]: 2.35 ± 0.28

FTLNPDKKTCRRINYCALNKPGCE [MATN2]
protein stability index [1]: 2.64 ± 0.64
protein stability index [2]: 2.96 ± 0.45

IAQCQDSPTSGKFRRGSGSACSLL [MCOLN1]
protein stability index [1]: 3.4 ± 0.2
protein stability index [2]: 3.63 ± 0.2

FLQYYYQSGCLYRLRALGERHTMD [TMEM120A]
protein stability index [1]: 2.46 ± 0.47
protein stability index [2]: 2.35 ± 0.38

NFIGRQWEISDDYPSLQAMGWFNN [CRYBA1]
protein stability index [1]: 2.45 ± 0.18
protein stability index [2]: 2.32 ± 0.18

KRSWTSAQNACSEHGATLAVIDSE [CD69]
protein stability index [1]: 4.64 ± 0.076
protein stability index [2]: 4.67 ± 0.17

YLEVLETMDNKKGRRYEAVKWMVV [CLCN6]
protein stability index [1]: 2.4 ± 0.72
protein stability index [2]: 2.25 ± 0.28

HSLRAVSTDPPHHDHHDEFCLMP [BEX1]
protein stability index [3]: 3 ± 0.6
protein stability index [4]: 3.76 ± 0.5

IIELLASDAGSPSLHKHLTIRLNI [PCDHGC5]
protein stability index [1]: 3.12 ± 0.48
protein stability index [2]: 3.15 ± 0.6

IDNAADLLIFGKELSAIGSDTTPL [SNX8]
protein stability index [1]: 3.22 ± 0.12
protein stability index [2]: 3.18 ± 0.48

KQNKTPLDKSTTGVSEILLKTQMK [FEM1B]
protein stability index [1]: 4.36 ± 0.15
protein stability index [2]: 4.2 ± 0.2

SATLRSFEGLMGTIKSKVSGGKRA [TPD52L3]
protein stability index [1]: 3.51 ± 0.18
protein stability index [2]: 3.33 ± 0.56

GMADVGTVCDPARSCAIVEDDGLQ [ADAMTS4]
protein stability index [1]: 4.62 ± 1.1
protein stability index [2]: 5.33 ± 0.088

EVNVLNDMRDTPLHRAAFTGRKIC [OSBPL1A]
protein stability index [1]: 3.19 ± 0.089
protein stability index [2]: 3.26 ± 0.31

GSQAGGSGSAGQYGSDQQHHLGSG [MYOZ1]
protein stability index [1]: 4.94 ± 0.23
protein stability index [2]: 5.17 ± 0.18

QDSPGPHEALSRLWELCHLWLRPE [ZNF396]
protein stability index [1]: 2.33 ± 0.14
protein stability index [2]: 2.15 ± 0.079

TQIGFADLMGVLTKGVREVERALQ [FEM1A]
protein stability index [1]: 2.29 ± 0.61
protein stability index [2]: 2.28 ± 0.45

EACLVAQCDALIDALNRRKAQLLA [TRIM9]
protein stability index [1]: 2.46 ± 0.29
protein stability index [2]: 2.65 ± 0.44

SPSSDRVSAIIWEGNECKKMDMSV [PHTF1]
protein stability index [1]: 3.6 ± 0.26
protein stability index [2]: 3.73 ± 0.43

AYRGNCKDVSRCVAERKYTQEQAR [SMOC2]
protein stability index [1]: 3.06 ± 0.19
protein stability index [2]: 3.38 ± 0.46

ATYRSLLEGQDAKMIGFPSSAGSV [KRT13]
protein stability index [1]: 3.22 ± 0.4
protein stability index [2]: 3.54 ± 0.24

KKEESGRERKKNWGGQEDREPAGR [PBXIP1]
protein stability index [1]: 5.16 ± 0.14
protein stability index [2]: 5.33 ± 0.26

DAPEQRLRVMTTNIRSARGNNPNG [ELOA2]
protein stability index [1]: 4.84 ± 0.23
protein stability index [2]: 4.95 ± 0.23

SAAHEVELQRQKEAEKLERQLALP [NOP53]
protein stability index [1]: 4.99 ± 0.33
protein stability index [2]: 5.19 ± 0.23

DLRLRLDHLGWVARGTGSGEDSST [RTN2]
protein stability index [1]: 3.53 ± 0.43
protein stability index [2]: 4.15 ± 0.37

TDIDIDTLCAVLERDTLSIRESRL [BTBD1]
protein stability index [1]: 2.84 ± 0.2
protein stability index [2]: 3.15 ± 0.37

TSVEECSQKGCLALSLLELLGFNL [CLCN6]
protein stability index [1]: 2.57 ± 0.68
protein stability index [2]: 2.37 ± 0.15

ALPENEFKKQIWLLFEYPESSSPA [KCNA4]
protein stability index [1]: 2.45 ± 0.16
protein stability index [2]: 2.44 ± 0.5

INKIAGHPLAQNERCLHMFLQEEA [SNX12]
protein stability index [1]: 3.07 ± 0.12
protein stability index [2]: 3.3 ± 0.17

DKSDQSLPNASADSLGGSQEMVQR [TRAF3IP2]
protein stability index [1]: 5.36 ± 0.17
protein stability index [2]: 5.33 ± 0.34
